Source: patent publication US20220290162

Biological target: Bxb1 serine integrase with ssrA degradation tag (Mycobacteriophage Bxb1?) (UniProt Q9B086)
Assay: cell_activity
Conditions: attB x attP inversion of P7 promoter, switched cells 42 C vs 37 C; E. coli Nissle

Sequence: GGGTTTGTACCGTACACCACTGAGACCGCGGTGGTTGACCAGACAAACCACGA (double strand) [Bxb1 attP]
- activity: > 100 fold

Sequence: TCGGCCGGCTTGTCGACGACGGCGGTCTCCGTCGTCAGGATCATCCGGGC (double strand) [Bxb1 attB]
- activity: > 100 fold
